{"source": "patent US20140178384A1", "about": "(INSTITUT PASTEUR, published 2014)", "target": "T1, p75 neurotrophin receptor on rat embryonic motor neurons (rat, UniProt P07174 30-425)", "T1 sequence (looked up)": "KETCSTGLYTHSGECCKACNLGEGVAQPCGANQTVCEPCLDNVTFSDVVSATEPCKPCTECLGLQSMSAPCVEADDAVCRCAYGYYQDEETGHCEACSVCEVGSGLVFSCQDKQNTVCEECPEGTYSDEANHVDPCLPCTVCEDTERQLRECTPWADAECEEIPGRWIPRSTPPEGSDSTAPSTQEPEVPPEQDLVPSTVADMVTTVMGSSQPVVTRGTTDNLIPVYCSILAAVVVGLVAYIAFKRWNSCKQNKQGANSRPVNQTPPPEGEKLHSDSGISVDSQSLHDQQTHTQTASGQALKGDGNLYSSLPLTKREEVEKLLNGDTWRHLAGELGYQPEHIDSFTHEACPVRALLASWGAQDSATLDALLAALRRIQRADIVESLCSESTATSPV", "test": "cell-based or functional assay"}
{"binder": "peroxynitrite-treated NGF (mouse NGF nitrated by peroxynitrite) (ligand, nitro groups on Tyr52 and Trp99 (the species identified by mass spectrometry); up to five nitro groups and methionine oxidation suggested) SSTHPVFHMGEFSVCDSVSVWVGDKTTATDIKGKEVTVLAEVNINNSVFRQYFFETKCRASNPVESGCRGIDSKHWNSYCTTTHTFVKALTTDEKQAAWRFIRIDTACVCVLSRKATR", "values": [{"measurement": "fold increase of apoptotic activity against native NGF", "result": 10000, "unit": "fold"}]}
